Experimental data taken from US20130156764A1, “NEUTRALIZATION OF FLT3 LIGAND AS A LEUKEMIA THERAPY” (The Johns Hopkins University, priority 2010, published 2013).

What was measured:
[1] = test system: FLT3/ITD and FLT3/TKD in TF1 cells; test: FL stimulation, FLT3 phosphorylation in TF1/ITD and TF1/TKD cells; assay type: cell-based; conditions: FL 15 minutes after serum starvation
Method: (§1) TF1 and BaF3 cells were transfected with pCINeo constructs containing either FLT3/ITD or FLT3/TKD mutation by electroporation (Bio-Rad, Hercules, Calif.). Stable transfectants were then selected by limiting dilution in 96-well plates with 1 mg/mL G418 (Invitrogen, Carlsbad, Calif.).
The possibility of further activation of FLT3 mutant receptors by exogenous FL was also tested in cell lines in which FL autocrine, paracrine, or intracrine stimulation of FLT3 receptor might exist. […] TF1 cells expressing FLT3 mutant receptors were starved for 16 hours in serum-free medium and washed once with PBS to deplete soluble FL (either produced by the cells or contained in the serum). These cells were then stimulated with exogenous FL for 15 minutes. More than 2-fold enhancement of FLT3 phosphorylation was detected in both TF1/ITD and TF1/TKD cell lines (FIG. 12A). […] To assess the functional effect of exogenous FL, TF1/ITD and TF1/TKD cells were cultured in serum-free medium in the absence and presence of FL for 48 hours. Apoptosis was assessed by Annexin V and 7AAD staining followed by FACS analysis. […] There was no change of cell cycle status in response to FL in these cells (data not shown).

[2] = test system: FLT3/ITD and FLT3/TKD in BaF3 cells; test: FL stimulation, FLT3 phosphorylation in BaF3/ITD and BaF3/TKD cells; assay type: cell-based
Method: as §1
BaF3 is another cell line lacking expression of endogenous FLT3. BaF3 cells transfected with mutant forms of FLT3 were starved in serum-free medium for 16 hours and washed with PBS before FL stimulation. […] Changes of other FLT3 downstream signals were not observed. An MTT survival assay was performed in BaF3/ITD and BaF3/TKD cells cultured in serum-free medium in the presence and absence of FL for 4 days. […] The effect was also confirmed by counting viable cell numbers by trypan blue exclusion (FIG. 13C, P<0.05). These findings indicate that FL stimulation prolongs the survival of cells expressing FLT3 mutants.

[3] = test system: primary AML blast samples harboring a FLT3/ITD mutation; test: MTT assay in primary AML blast samples with FLT3/ITD mutation with FL; assay type: cell-based, human; conditions: addition of exogenous FL, all 3 samples
Description: Leukemia cell specimens were provided by the Sidney Kimmel Cancer Center at Johns Hopkins Tumor and Cell Procurement Bank. All patients gave informed consent according to the Declaration of Helsinki. The specimens were obtained by Ficoll purifying mononuclear cells from the peripheral blood patients with FLT3/ITD AML. The mononuclear cells were aliquoted and stored frozen in liquid nitrogen in bovine serum with 10% DMSO for repeated use. Prior to each use, aliquots of these blasts were thawed rapidly into warm culture medium, incubated for 12 hours, and then recentrifuged over Ficoll to eliminate cells dying from the freeze-thaw process. Using this method, blasts were obtained that maintained satisfactory viability (as determined by Trypan blue exclusion) and responsiveness to cytotoxic agents in culture over 72 hours.
Cytotoxicity was assessed using an MTT (Dimethyl-thiazol diphenyl tetrazolium bromide) assay. In selected cases, an Annexin-V binding apoptosis assay was also used to confirm that the cytotoxic effect observed (or lack thereof) was associated with an equivalent degree of apoptosis. MTT (Roche, Indianapolis, Ind.) and Annexin V (Pharmingen, San Diego, Calif.) assays were performed as described previously.
In three primary samples from AML patients with FLT3/ITD mutations (FIG. 8), a similar pattern of response to FL and FLT3 inhibition was observed.

[4] = test system: FLT3 (wt, ITD, TKD) in FL−/− MEF cells; test: FL stimulation, FLT3 phosphorylation in FL−/− MEF cells expressing wtFLT3, FLT3/ITD, FLT3/TKD; assay type: cell-based, mice
Method: Embryos were removed from female FL^−/− mice (purchased from Taconic, Hudson, N.Y.) on day 13 or 14 of pregnancy. Internal organs and heads were removed. The remainder of the embryos were washed, minced, digested with Trypsin/EDTA, and then resuspended in DMEM containing 10% FBS followed by centrifuging at 1000×g for 5 minutes. The cell pellet was resuspended in DMEM containing 10% FBS and cultured at 37° C. with 5% CO2. After 3 passages, the cells were transfected with CMV-SV40-large T antigen to immortalize FL^−/− MEF cells. The FL^−/− MEF cells represent bulk cells after transformation.
Retrovirus was obtained by harvesting supernatant 48 hours after transfection of 293T cells with pBabePuro constructs. […]
To eliminate the complicating factor of autocrine, paracrine, and intracrine FL expression on mutant FLT3 activation, FL^−/− MEF cells were established from FL^−/− mice. […] The addition of FL induced more than a 4-fold increase in FLT3 phosphorylation in FL^−/− MEF-FLT3, FL^−/− MEF-ITD, and FL^−/− MEF-TKD cells (quantitated by GS-800 Calibrated Densitometer (Bio-Rad) and Quantity One software (Bio-Rad)) (FIG. 10B, lanes 4, 6, and 8 versus lanes 3, 5, and 7). […]
The effect of endogenous FL expression on the activation of FLT3/ITD and FLT3/TKD mutant receptors were next examined. […] The expression of FL was assessed by the detection of the secreted form of FL in the cell culture supernatant. […]

B1: FL: Recombinant human FL (fms-related tyrosine kinase ligand) purchased from PeproTech; SEQ ID NO: 1 (protein, listed as Homo sapiens)
chain: MTVLAPAWSPTTYLLLLLLLSSGLSGTQDCSFQHSPISSDFAVKIRELSDYLLQDYPVTVASNLQDEELCGGLWRLVLAQRWMERLKTVAGSKMQGLLERVNTEIHFVTKCAFQPPPSCLRFVQTNISRLLQETSEQLVALKPWITRQNFSRCLELQCQPDSSTLPPPWSPRPLEATAPTAPQPPLLLLLLLPVGLLLLAAAWCLHWQRTRRRTPRPGEQVPPVPSPQDLLLVEH
- enhancement of FLT3 phosphorylation [1]: More than 2 fold
- FLT3 phosphorylation [2]: increased FLT3 phosphorylation
- metabolic activity of the sample in culture medium [3]: increased
- increase in FLT3 phosphorylation ([4]; FL−/− MEF-FLT3, MEF-ITD and MEF-TKD cells, serum-free, FL 100 ng/mL 15 minutes): > 4 fold
- FLT3 phosphorylation in cells expressing endogenous FL ([4]; exogenous FL 100 ng/mL, MEF-FLT3, MEF-ITD, MEF-TKD cells stably expressing FL): did not further augment
